Type in all cases: biochemical
A short description of data set [1]: Glycosyltransfering reaction with crude enzyme, substrate Rg3. The note with it: crude enzyme: lysate supernatant of recombinant yeast; UDP-glucose, 35° C., 12 hrs; TLC. Here is the method: (§1) The lysate supernatant of the recombinant yeasts expressing the empty vector was used as control.
(§2) The reaction was conducted under 35° C. for 12 hrs, then stopped by adding 100 μL of butanol. The product were extracted, dried in vacuum, and dissolved in methanol.
(§3) The reaction products were first detected by thin layer chromatography (TLC). […]

Data set [2] in a line: Glycosyltransfering reaction with crude enzyme, substrate DM. The note with it: crude enzyme: lysate supernatant of recombinant yeast; UDP-glucose, 35° C., 12 hrs; TLC. The method, then: as §1, §2
(§4) The reaction products were first detected by thin layer chromatography (TLC).
(§5) The glycosyltransfering reactions of ginsenosides and ginsengenins were catalyzed by using the lysis supernatant of the recombinant yeasts expressing 3GT1, 3GT2, 3GT3 and 3GT4 as crude enzymes. The lysis supernatant of recombinant E. coli expressing empty vectors was used as control. The 100 μL reaction system is shown as Table 3. The reaction was conducted under 35° C. for 12 hrs, then stopped by adding 100 μL of butanol. The product were extracted, dried in vacuum, and dissolved in methanol.

Data set [3] in a line: Glycosyltransfering reaction with crude enzyme, substrate Rf. The note with it: crude enzyme: lysate supernatant of recombinant yeast; UDP-glucose, 35° C., 12 hrs; TLC. Here is the method: as §1, §2, §4
The nature of data set [4]: Glycosyltransfering reaction with crude enzyme, substrate Rh1. The note with it: crude enzyme: lysate supernatant of recombinant yeast; UDP-glucose, 35° C., 12 hrs; TLC. The method, then:
as §1, §2, §3

Data set [5] in a line: Glycosyltransfering reaction with crude enzyme, substrate PPD. The note with it: for glycosylation of C20-OH of PPD (product CK): crude enzyme: lysate supernatant of recombinant yeast, UDP-glucose. The method, then:
as §1, §2, §4
(§6) The converted products of gGT25 were further identified by HPLC (FIG. 10 and FIG. 11). The retention time of peak 2 was identical to that of the CK standard sample; the retention time of peak 3 was identical to that of PPD. […] Peak 1, also present in the profile of the negative control, indicated its irrelevance to the conversion of PPD. 3 peaks were shown in FIG. 11, the retention time of peak 1 was identical to that of F1 standard sample and peak 3 was identical to that of PPT. […] Peak 2, also present in the profile of the negative control, indicated its irrelevance to the conversion of PPT.
(§7) According to the method as in Example 4, the cell lysate of recombinant yeasts expressing gGT13 and gGT30 were used to catalyze PPD and PPT.
The cell lysis supernatant of the recombinant E. coli was used as crude enzyme to conduct the glycosyltransfering reaction, and the reaction condition was identical to that of Example 4.
The reaction was conducted under 35° C. for 12 hrs. 100 μL of butanol was added to stop the reaction and the products were extracted. Upon vacuum drying, the product was dissolved by methanol. TLC was first used to detect the reaction product.
as §5
The reaction was conducted under 35° C. for 12 hrs, and then stopped by adding 100 μL of butanol. The product were extracted, dried in vacuum, and dissolved in methanol. The reaction products were first detected by thin layer chromatography (TLC) (FIG. 35).

A short description of data set [6]: Glycosyltransfering reaction with crude enzyme, substrate Rg2. The note with it: crude enzyme: lysate supernatant of recombinant yeast; UDP-glucose, 35° C., 12 hrs; TLC. The method, then: as §1, §2, §4
Data set [7] is described as follows: Glycosyltransfering reaction with crude enzyme, substrate Rh2. The note with it: crude enzyme: lysate supernatant of recombinant yeast; UDP-glucose, 35° C., 12 hrs; TLC. Here is the method: as §1, §2, §3
(§8) The lysate supernatant of the recombinant yeast expressing empty vectors was used as control. The reaction was conducted under 35° C. for 12 hrs, and then stopped by adding 100 μL of butanol. The product were extracted, dried in vacuum, and dissolved in methanol.
(§9) The glycosyltransfering reactions of ginsenosides Rh2 and F2 were catalyzed by using the lysate supernatant of the recombinant yeasts expressing 3GT1, 3GT2, 3GT3 and 3GT4 as crude enzymes. The 100 μL reaction system is shown as Table 3. The reaction was conducted under 35° C. for 12 hrs, and then stopped by adding 100 μL of butanol. The product were extracted, dried in vacuum, and dissolved in methanol.

The nature of data set [8]: Glycosyltransfering reaction with crude enzyme, substrate PPT. The note with it: for glycosylation of C6-OH of PPT (product Rg1 or Rh1) / glycosylation of C20-OH of PPT (product F1): crude enzyme: lysate supernatant of recombinant yeast, UDP-glucose, 35° C., 12 hrs, TLC. Here is the method: as §1, §2, §4, §6, §7, §5
Data set [9] in a line: Glycosyltransfering activities on ginsengenins and saponins: glycosylation site and specificity (summary). The note with it: for glycosylation site: C6 / glycosylation site: C20 / glycosylation site: The first glycosyl at C-3: Table 2, tetracyclic triterpenoid substrates; for extension of carbohydrate chain: crude enzyme: lysate supernatant of recombinant yeast, UDP-glucose, 35° C., 12 hrs, TLC. Here is the method:
More than 100 predicted cDNA sequences of glycosyltransferases were extracted from the published expression profile data of the Panax plant. 60 cDNAs with full length were cloned, expressed, and subjected to the analysis of glycosyltransfering reaction.
as §1, §2, §5, §8, §9

The nature of data set [10]: Glycosyltransfering reaction with crude enzyme, substrate Rh2. The note with it: crude enzymes of Example 21 (E. coli expression products); 35° C., 12 hrs; TLC.
A short description of data set [11]: Glycosyltransfering reaction with crude enzyme, substrate F2. The note with it: crude enzymes of Example 21 (E. coli expression products); 35° C., 12 hrs; TLC. The method, then: as §7, §8, §9
The mark [12] stands for this setting: crude enzyme from recombinant yeast, HPLC.

B1: gGT25: glycosyltransferase protein with 475 amino acids, amino acid sequence SEQ ID NO.: 2, cloned from P. ginseng cDNA (protein)
chain: MKSELIFLPAPAIGHLVGMVEMAKLFISRHENLSVTVLIAKFYMDTGVDNYNKSLLTNPTPRLTIVNLPETDPQNYMLKPRHAIFPSVIETQKTHVRDIISGMTQSESTRVVGLLADLLFINIMDIANEFNVPTYVYSPAGAGHLGLAFHLQTLNDKKQDVTEFRNSDTELLVPSFANPVPAEVLPSMYVDKEGGYDYLFSLFRRCRESKAIIINTFEELEPYAINSLRMDSMIPPIYPVGPILNLNGDGQNSDEAAVILGWLDDQPPSSVVFLCFGSYGSFQENQVKEIAMGLERSGHRFLWSLRPSIPKGETKLQLKYSNLKEILPVGFLDRTSCVGKVIGWAPQVAVLGHESVGGFLSHCGWNSTLESVWCGVPVATWPMYGEQQLNAFEMVKELGIAVEIEVDYKKDYFNMKNDFIVRAEEIETKIKKLMMDENNSEIRKKVKEMKEKSRAAMSENGSSYNSLAKLFEEIM
modifications: Panax ginseng; gGT25
In the case of B1, in data set [1], the “glycosylation of C20-OH of Rg3 (product Rd)” value is recorded as “further glycosylated at C20-OH”. Moreover, the “glycosylation of C20-OH of DM (product 20-O-β-(D-glucopyranosyl)-dammarendiol II)” value in data set [2] is given as “could also glycosylate C20-OH”. Moreover, the “glycosylation of C20-OH of Rf” value in data set [3] is “could not be catalyzed”. Moreover, the “glycosylation of C20-OH of Rh1” value in data set [4] is reported as “could not be catalyzed”. For the same molecule, the “transformation of PPD into CK” value in data set [5] (setting [12]) is reported as “substantially transformed”. Besides, the “transformation of PPD into CK” value in data set [5] (crude enzyme: cell lysis supernatant of recombinant E. coli, 35° C., 12 hrs, TLC) is “could transform PPD into CK”. The “glycosylation of C20-OH of PPD (product CK)” value in data set [5] (35° C., 12 hrs, TLC) is listed as “glycosylated the C20-OH”. Moreover, the “glycosylation of C20-OH of Rg2” value in [6] is “could not be catalyzed”. For the same molecule, the “glycosylation of C20-OH of Rh2 (product F2)” value in [7] is recorded as “further glycosylated at C20-OH”. For the same molecule, the “transformation of PPT into F1” value in data set [8] (setting [12]) was “substantially transformed”. In addition, in data set [8], the “glycosylation of C6-OH of PPT (product Rg1 or Rh1)” value is reported as “C6-OH could be further glycosylated” and the “glycosylation of C20-OH of PPT (product F1)” value is “glycosylated the C20-OH”. Besides, in data set [9], the “glycosylation site: C6” value is on record as “✓”, the “glycosylation site: C20” value is reported as “✓” and the “extension of carbohydrate chain” value is recorded as “could not catalyze”.

B2: gGT25-1: glycosyltransferase protein with 475 amino acids, SEQ ID NO.: 16 (protein)
chain: MKSELIFLPAPAIGHLVGMVEMAKLFISRHENLSVTVLIAKFYMDTGVDNYNKSLLTNPTPRLTIVNLPETDPQNYMLKPRHAIFPSVIETQKTHVRDIISGMTQSESTRVVGLLADLLFINIMDIANEFNVPTYVYSPAGAGHLGLAFHLQTLNDKKQDVTEFRNSDTELLVPSFANPVPAEVLPSMYVDKEGGYDYLFSLFRRCRESKAIIINTFEELEPYAINSLRMDSMIPPIYPVGPILNLNGDGQNSDEAAVILGWLDDQPPSSVVFLCFGSYGTFQENQVKEIAMGLERSGHRFLWSLRPSIPKGETKLQLKYSNLEEILPVGFLDRTSCVGKVIGWAPQVAVLGHEAVGGFLSHCGWNSTLESVWCGVPVATWPMYGEQQLNAFEMVKELGIAVEIEVDYKNEYFNMNNDFIVRAEEIETKIKKLMMDEKNSEIRKKVKEMKEKSRLAMSENGSSYNSLAKLFEEIM
modifications: Panax ginseng; gGT25-1
For B2, the “glycosylation of C20-OH of Rg3 (product Rd)” value in data set [1] is on record as “further glycosylated at C20-OH”. Besides, in data set [2], the “glycosylation of C20-OH of DM (product 20-O-β-(D-glucopyranosyl)-dammarendiol II)” value is “could also glycosylate C20-OH”. Further, in [3], the “glycosylation of C20-OH of Rf” value is reported as “could not be catalyzed”. Moreover, in [4], the “glycosylation of C20-OH of Rh1” value is on record as “could not be catalyzed”. Also, in data set [5] (35° C., 12 hrs, TLC), the “glycosylation of C20-OH of PPD (product CK)” value was “glycosylated the C20-OH”. Moreover, in data set [6], the “glycosylation of C20-OH of Rg2” value is reported as “could not be catalyzed”. Moreover, in data set [7], the “glycosylation of C20-OH of Rh2 (product F2)” value is “further glycosylated at C20-OH”. In [8], the “glycosylation of C6-OH of PPT (product Rg1 or Rh1)” value is listed as “C6-OH could be further glycosylated” and the “glycosylation of C20-OH of PPT (product F1)” value was “glycosylated the C20-OH”. For the same molecule, in data set [9], the “glycosylation site: C6” value was “✓”, the “glycosylation site: C20” value is given as “✓” and the “extension of carbohydrate chain” value was “could not catalyze”.

B3: gGT29-7: glycosyltransferase protein with 446 amino acids, SEQ ID NO.: 61 (protein)
chain: MDNQKGRISIALLPFLAHGHISPFFELAKQLAKRNCNVFLCSTPINLSSIKNRVSDKDSSASIKLVELHLPSSPDLPPHYHTTNGLPSHLMIPLRNAFDTAGPTFSEILKTLNPDLLIYDFNPSWAPEIASSHNIPAVCFIIGGAASSSMSLHSFKNPGEKYPFLDFDDNSNITPEPPSADNMKLLINFMTCFERSCDIILIKSFRELEGKYFDFFSTLSDKTLVPVGPLVQDPMGHNEDPKTEQFINWLDKRAESTVVFVCFGSECFLSNEELEEVAIGLEISMVNFIWAVRLIEGEKKGVLPEGFVQRVGDRGLVVEEWAPQARILGHSSTGGFVSHCGWNSITESMKFGVPVIAMARHFDQPLNGKLAAEVGVGMEVVRDENGKYKREGIAEVIRKVVVEKSGEVIRRKARELSEKMKEKGEQEIDRVVEELVQICKKKKDEQ
modifications: Panax ginseng; gGT29-7
As for B3, in data set [10], the “extension of C3 glycosyl of Rh2 by one more glycosyl (product Rg3)” value is reported as “could not be catalyzed”. For the same molecule, the “extension of C3 glycosyl of F2 by one more glycosyl (product Rd)” value in [11] is listed as “could be extended by one more glycosyl”. Further, the “glycosylation site: The first glycosyl at C-3” value in data set [9] was “✓”.

B4: gGT29-5: glycosyltransferase protein with 446 amino acids, SEQ ID NO.: 57 (protein)
chain: MDNQKGRISIVMLPFLAHGHISPFFELAKHLSKRNCNIFLCSTPINLSSIKNRISDKDSSASIKLVELHLPSSPDLPPHYHTTNGLPSHLMVPLRNAFETAAPTFSEILKTLNPDLLIYDFNPSWAPEIASSHNIPAVCFIIGGAASFSMSLHSFKNPGEKYPFLDFDDNSNITPEPPSADNMKLLLDFMTCFERSCDIILIKSFRELEGKYIDLLSTLSDKTLVPVGPLVQDPMGHNEDPKTEQIINWLDKRAESTVVFVCFGSEYFLSNEELEEVAIGLEISMVNFIWAVRLIEGEKKGVLPEGFVQRVGDRGLVVEGWAPQARILGHSSTGGFVSHCGWSSIAESMKFGVPVIAMARHLDQPLNGKLAAEVGVGMEVVRDENGKYKREGIAEVIRKVVVEKSGEVIRRKARELSEKMKEIGEQLIDRAVEELVQICKKKKDEQ
modifications: Panax ginseng; gGT29-5
Consider B4, for which the “extension of C3 glycosyl of Rh2 by one more glycosyl (product Rg3)” value in data set [10] is on record as “could not be catalyzed”. The “extension of C3 glycosyl of F2 by one more glycosyl (product Rd)” value in data set [11] was “could be extended by one more glycosyl”. In data set [9], the “glycosylation site: The first glycosyl at C-3” value is on record as “✓”.

Source of the values: patent US9976167B2, “Group of glycosyltransferases and use thereof” (Shanghai Institutes For Biological Sciences, Chinese …, priority 2012, dated 2018).
